# Measurements published in patent US20240150489A1 (ICHNOS SCIENCES, published 2024).
# T1: cynomolgus CD47-ECD-Avi-His (cynomolgus monkey)
# T1 construct: also called recombinant cynomolgus monkey CD47-avi-his protein
# T1 chain: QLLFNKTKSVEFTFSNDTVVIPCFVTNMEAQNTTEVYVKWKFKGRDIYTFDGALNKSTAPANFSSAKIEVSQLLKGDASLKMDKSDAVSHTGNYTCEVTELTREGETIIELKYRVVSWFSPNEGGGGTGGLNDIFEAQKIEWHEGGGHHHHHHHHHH
# Experiments:
# [1] = target: T2, recombinant cynomolgus monkey CD38-ECD-C-his (cynomolgus monkey, UniProt Q5VAN0 45-301); experiment: SPR, His-captured cyno CD38, Fab analyte; NB = no detectable binding
# T2 construct: Extracellular region fused to 6-His; also called cyno CD38-C-His; recombinant cynomolgus monkey CD38 protein
# Description: (§1) Surface plasmon resonance (SPR) was used to measure the binding affinities of the Fab fragments for human and cynomolgus monkey CD38. Affinities were measured on a Biacore T200 instrument (Biacore, GE Healthcare) at 25° C. and analyzed with the Biacore T200 Evaluation Software (v3.1).
# (§2) The affinities to human and cynomolgus monkey CD38 were assessed by immobilizing CD38 and using Fab fragments as analyte. Biotinylated recombinant human CD38 protein was immobilized to around 160 RU on flow-path 2 of a Series S Sensor Chip SA or to around 100 RU on flow-path 2 of a Series S BiotinCAPture Chip and recombinant cynomolgus monkey CD38-his protein was immobilized to around 50-100 RU on flow-path 2 of a Series S CM5 Sensor Chip previously coated with anti-histidin antibody. Fab fragments were injected in single cycle kinetic at different concentrations ranging from 7.8 to 2000 nM, in HBS-EP+ buffer (Biacore, GE Healthcare, catalog NO: BR100669) at a flow rate of 30 μl/min for 3 min on flow-path 1 and 2 (flow-path 1 being used as reference). Dissociation was monitored for 5 min.
# [2] = target: T3, recombinant biotinylated human CD38 Avitag, His Tag (Acrobiosystems, CD8-H82E7) (human, UniProt P28907 43-300, biotinylated (Avitag)); experiment: SPR, biotinylated CD38 captured, Fab analyte, 1:1 fit;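 further: biacore T200 at 25 °C, single-cycle kinetics with Fab injected at 7.8–2000 nM for 3 min, dissociation followed 5 min, reference flow path subtracted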
# T3 construct: Bought protein; also called biotinylated human CD38-avi-his protein; biotinylated recombinant human CD38 protein
# Description: as §1, §2
# human CD47-ECD-Avi-His [3] = target: T4, human CD47-ECD-Avi-His (human); experiment: SPR, CD47 amine-coupled, Fab analyte, 1:1 fit
# T4 construct: also called recombinant human CD47-avi-his protein; recombinant human CD47 protein
# Description: (§3) Surface plasmon resonance (SPR) was used to measure the binding affinities of the Fab fragments for human and cynomolgus monkey CD47. Affinities were measured on a Biacore T200 instrument (Biacore, GE Healthcare) at 25° C. and analyzed with the Biacore T200 Evaluation Software (v3.1). […] Recombinant human CD47 protein and recombinant cynomolgus monkey CD47 protein were covalently immobilized to around 50 RU on flow-path 2 and flow-path 4 respectively of the Sensor Chip surface using a commercially available amine coupling kit (Biacore, GE Healthcare, catalog NO: BR100050). […] Dissociation was monitored for 5 min. After each cycle, the Series S CM5 Sensor Chip surface coated with recombinant CD47 proteins was regenerated with 30 μl of 10 mM Glycine pH 1.5 (Biacore, GE Healthcare, catalog NO: BR100354). Experimental data were processed using the 1:1 Langmuir kinetic fitting model. Measurements included zero-concentration samples for referencing. Chi², U- and residual values were used to evaluate the quality of a fit between the experimental data and individual binding models.
# [4] = target: T1, cynomolgus CD47-ECD-Avi-His; experiment: SPR, CD47 amine-coupled, Fab analyte, 1:1 fit
# Description: as §3
# human CD47-ECD-Avi-His [5] = target: T4, human CD47-ECD-Avi-His; experiment: SPR; human CD47; value given in the text of paragraph 230
# Description: as §3
# [6] = target: T1, cynomolgus CD47-ECD-Avi-His; experiment: SPR; cynomolgus monkey CD47; value given in the text of paragraph 230
# Description: as §3
binding result [1],Kd [2],Kd (human CD47-ECD-Avi-His [3]),Kd [4],Kd (human CD47-ECD-Avi-His [5]),Kd [6],Binder
no binding (tested: 2000 nM),666 nM,–,–,–,–,"Anti-CD38-UCP01-D1 Fab (Fab, V domains shown, human IgG1 Fab) VH: QVQLVQSGAEVKKPGSSVKVSCKASGGIFNGYLISWVRQAPGQGLEWMGGIIPVNGLADYAQKFQGRVTITADESTSTAYMELSSLRSEDTAVYYCARTIGRYIIAFDYWGQGTLVTVSS VL: not shown"
–,–,878 nM,939 nM,104 nM,142 nM,"anti-CD47-UCP01-H2 FAB (Fab, V domains shown, human IgG1 Fab; also called anti-CD47-H2; anti-CD47-H2 Fab) VH: EVQLVESGGGLIQPGGSLRLSCAASGFTLSRNTMHWVRQAPGKGLEWVSVIYQSGVTRYADSVKGRFTISRDNSKNTLYLQMNSLRAEDTAVYYCARGRYGVAGGPGYAFDVWGQGTLVTVSS VL: not shown"
